This experiment has as its target T1, Recombinant GST-tagged hDPP3 (human) (UniProt Q9NY33).
T1 sequence: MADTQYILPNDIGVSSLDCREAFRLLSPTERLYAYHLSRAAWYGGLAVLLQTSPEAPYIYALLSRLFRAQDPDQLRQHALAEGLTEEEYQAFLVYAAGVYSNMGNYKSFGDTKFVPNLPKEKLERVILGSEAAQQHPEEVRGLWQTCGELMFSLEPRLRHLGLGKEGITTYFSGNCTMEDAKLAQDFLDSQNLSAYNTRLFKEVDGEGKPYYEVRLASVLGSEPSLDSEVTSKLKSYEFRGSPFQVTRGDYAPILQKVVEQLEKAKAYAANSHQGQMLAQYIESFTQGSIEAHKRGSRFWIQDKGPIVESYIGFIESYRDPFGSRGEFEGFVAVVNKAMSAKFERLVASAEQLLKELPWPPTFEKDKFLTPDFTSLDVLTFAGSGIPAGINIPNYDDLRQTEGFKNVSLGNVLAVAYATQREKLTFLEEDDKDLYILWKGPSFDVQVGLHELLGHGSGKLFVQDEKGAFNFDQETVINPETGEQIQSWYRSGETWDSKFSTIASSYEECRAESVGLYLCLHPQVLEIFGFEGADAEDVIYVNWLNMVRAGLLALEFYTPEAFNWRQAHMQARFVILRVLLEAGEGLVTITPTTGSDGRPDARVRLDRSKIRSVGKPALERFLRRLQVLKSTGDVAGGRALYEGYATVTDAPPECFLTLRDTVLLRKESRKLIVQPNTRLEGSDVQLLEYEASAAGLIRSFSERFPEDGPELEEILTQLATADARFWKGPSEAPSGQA
The experiment can be described thus: cell-based or functional assay.

B1: anti-DPP3 antibody clone 2555 (antibody, from another filing, V domains shown)
VH: EVQLQQSGPELVKPGASVKISCKASGYSFTGYYIHWVKQSPENSLEWIGEINPSTGGTNYNQKFKGKATLTVDKSSSTAYMQLKSLTSEESAVYYCTRSYYGIYSWFAYWGQGTLVTVSA
VL: DIKMTQSPSSMYASLGERVTITCKASQDIKSYLSWYQQKPWKSPKTLIYYATSLADGVPSRFSGSGSGQDYSLTISSLESDDTATYYCLQHGESPRTFGGGTKLEIK
For B1, the Max inhibition of hDPP3 was 25%.

The values above are taken from patent EP3922993A1.
